Blank lines part the entries; values can stand above or below the molecule they belong to.
Tests used:
[1] = biological target: Stau1 dsRBD2-3-4-dd (human); test: SEC-MALS; about 350 µg of each Stau1 construct on Superdex 200 10/300; 20 mM HEPES pH 7.5, 150 mM NaCl, 0.02% NaN3; dimer to monomers
[2] = biological target: the molecule itself; test: SEC; analytical SEC of full-length Stau1 alone; monomer and dimer peaks
[3] = biological target: GST-UPF1 (CH domain and helicase core) (human) (UniProt Q92900); test: pull-down; as the GST pull-down, with UPF2 added as a third purified protein
GST-UPF1CH [4] = biological target: T1, GST-UPF1CH (human, UniProt Q92900-2 115-272); test: as above; conditions: both partners purified
T1 construct: human UPF1, N-terminal cysteine-histidine-rich (CH) domain; also called UPF1CH domain; source: E. coli BL21 (DE3) STAR pRARE, purified (Ni-NTA, heparin, SEC)
T1 sequence (looked up): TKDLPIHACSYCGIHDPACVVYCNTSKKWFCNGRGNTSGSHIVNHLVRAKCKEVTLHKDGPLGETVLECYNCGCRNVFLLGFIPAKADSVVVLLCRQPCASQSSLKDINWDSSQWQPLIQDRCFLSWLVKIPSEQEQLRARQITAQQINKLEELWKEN

GST-UPF1CH [5] = biological target: T1, GST-UPF1CH; test: pull-down; GST-tagged bait and prey mixed in equal amounts, 4 °C 16 h, Glutathione Sepharose; 20 mM HEPES pH 7.5, 150 mM NaCl, 10% glycerol, 0.1% NP-40; eluted with 20 mM glutathione, SDS-PAGE and Coomassie; bands quantified with ImageJ; conditions: both partners purified

stoichiometry N [1]: 2
Molecule: Stau1 dsRBD2-3-4-dd (domain or fragment)

fold increase of co-precipitated Stau1 on addition of UPF2 [3]: 3.3 fold
fold increase of co-precipitated Stau1 on addition of UPF2 (GST-UPF1CH [4]): 2.3 fold
fold lower amount bound than UPF2s (GST-UPF1CH [5]): 3.3 fold
B1: Stau1, full length (Stau1_63, the longer isoform, 577 residues) (natural protein, human, UniProt O95793 1-577, looked up)
chain: MSQVQVQVQNPSAALSGSQILNKNQSLLSQPLMSIPSTTSSLPSENAGRPIQNSALPSASITSTSAAAESITPTVELNALCMKLGKKPMYKPVDPYSRMQSTYNYNMRGGAYPPRYFYPFPVPPLLYQVELSVGGQQFNGKGKTRQAAKHDAAAKALRILQNEPLPERLEVNGRESEEENLNKSEISQVFEIALKRNLPVNFEVARESGPPHMKNFVTKVSVGEFVGEGEGKSKKISKKNAAIAVLEELKKLPPLPAVERVKPRIKKKTKPIVKPQTSPEYGQGINPISRLAQIQQAKKEKEPEYTLLTERGLPRRREFVMQVKVGNHTAEGTGTNKKVAKRNAAENMLEILGFKVPQAQPTKPALKSEEKTPIKKPGDGRKVTFFEPGSGDENGTSNKEDEFRMPYLSHQQLPAGILPMVPEVAQAVGVSQGHHTKDFTRAAPNPAKATVTAMIARELLYGGTSPTAETILKNNISSGHVPHGPLTRPSEQLDYLSRVQGFQVEYKDFPKNNKNEFVSLINCSSQPPLISHGIGKDVESCHDMAALNILKLLSELDQQSTEMPRTGNGPMSVCGRC
notes: human Stau1, longer isoform Stau1_63, 577 residues; In rapid equilibrium between monomer and dimer in solution; source: E. coli BL21 (DE3) STAR pRARE, purified (Ni-NTA, heparin, SEC)
stoichiometry N [2]: 2
